The values below come from US20070148191A1.

This experiment addresses CDw52 antigen (CAMPATH-1 antigen) (human) (UniProt P31358). The experiment is described as follows: cell-based or functional assay.

On to CAMPATH (antibody), for which the lysis in 51Cr release assay (ADCC) of SaOS-2 osteosarcoma cells with LAK effector cells, after 18 h was 45%.
